First the molecules themselves.
B1: T0263018B11 S52D (VHH, name in Kabat numbering)
VHH: EVQLVESGGGVVQPGGSLRLSCAASGFTFSSYAMYWVRQAPGKGLEWVSAIDSGGGSTDYADSVKGRFTISRDNSKNTLYLQMNSLRPEDTALYYCAADTLYTSLTWYSYWGQGTLVTVSS
notes: FLAG3-His6 tagged
B2: T0263018B11 S56L (VHH, name in Kabat numbering)
VHH: B1 VHH with D52S, S57L
notes: FLAG3-His6 tagged
B3: T0263018B11 S52R (VHH, name in Kabat numbering)
VHH: B1 VHH with D52R
notes: FLAG3-His6 tagged
B4: T0263018B11 S52aE (VHH, name in Kabat numbering)
VHH: B1 VHH with D52S, S53E
notes: FLAG3-His6 tagged
B5: T0263018B11 S52T (VHH, name in Kabat numbering)
VHH: B1 VHH with D52T
notes: FLAG3-His6 tagged
B6: T0263018B11 S56A (VHH, name in Kabat numbering)
VHH: B1 VHH with D52S, S57A
notes: FLAG3-His6 tagged
B7: T0263018B11 S56H (VHH, name in Kabat numbering)
VHH: B1 VHH with D52S, S57H
notes: FLAG3-His6 tagged
B8: T0263018B11 S52aR (VHH, name in Kabat numbering)
VHH: B1 VHH with D52S, S53R
notes: FLAG3-His6 tagged
B9: T0263018B11 S52Q (VHH, name in Kabat numbering)
VHH: B1 VHH with D52Q
notes: FLAG3-His6 tagged
B10: T0263018B11 S52aW (VHH, name in Kabat numbering)
VHH: B1 VHH with D52S, S53W
notes: FLAG3-His6 tagged
B11: T0263018B11 S52aT (VHH, name in Kabat numbering)
VHH: B1 VHH with D52S, S53T
notes: FLAG3-His6 tagged
B12: T0263018B11 S52aN (VHH, name in Kabat numbering)
VHH: B1 VHH with D52S, S53N
notes: FLAG3-His6 tagged
B13: T0263018B11 S56K (VHH, name in Kabat numbering)
VHH: B1 VHH with D52S, S57K
notes: FLAG3-His6 tagged
B14: T0263018B11 S52aG (VHH, name in Kabat numbering)
VHH: B1 VHH with D52S, S53G
notes: FLAG3-His6 tagged
B15: T0263018B11 S52G (VHH, name in Kabat numbering)
VHH: B1 VHH with D52G
notes: FLAG3-His6 tagged
B16: T0263018B11 S52P (VHH, name in Kabat numbering)
VHH: B1 VHH with D52P
notes: FLAG3-His6 tagged
B17: T0263018B11 S52aM (VHH, name in Kabat numbering)
VHH: B1 VHH with D52S, S53M
notes: FLAG3-His6 tagged
B18: T0263018B11 S52V (VHH, name in Kabat numbering)
VHH: B1 VHH with D52V
notes: FLAG3-His6 tagged
B19: T0263018B11 S52aP (VHH, name in Kabat numbering)
VHH: B1 VHH with D52S, S53P
notes: FLAG3-His6 tagged
B20: T0263018B11 S52E (VHH, name in Kabat numbering)
VHH: B1 VHH with D52E
notes: FLAG3-His6 tagged
B21: T0263018B11 S52aV (VHH, name in Kabat numbering)
VHH: B1 VHH with D52S, S53V
notes: FLAG3-His6 tagged
B22: T0263018B11 S52H (VHH, name in Kabat numbering)
VHH: B1 VHH with D52H
notes: FLAG3-His6 tagged
B23: T0263018B11 S52aA (VHH, name in Kabat numbering)
VHH: B1 VHH with D52S, S53A
notes: FLAG3-His6 tagged
B24: T0263018B11 S52aY (VHH, name in Kabat numbering)
VHH: B1 VHH with D52S, S53Y
notes: FLAG3-His6 tagged

Changes are numbered by the printed parent chain.

T1 sequence (chain, as listed by the source limits assumed, chain 1 of 2): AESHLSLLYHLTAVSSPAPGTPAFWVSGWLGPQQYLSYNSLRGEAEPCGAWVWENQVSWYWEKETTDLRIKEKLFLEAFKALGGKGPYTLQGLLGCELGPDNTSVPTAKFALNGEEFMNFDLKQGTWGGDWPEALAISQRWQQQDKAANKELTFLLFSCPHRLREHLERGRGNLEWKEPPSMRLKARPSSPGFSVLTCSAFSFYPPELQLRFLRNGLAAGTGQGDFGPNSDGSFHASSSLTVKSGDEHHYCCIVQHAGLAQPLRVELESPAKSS
T1 sequence (P61769 21-119 limits assumed, chain 2 of 2): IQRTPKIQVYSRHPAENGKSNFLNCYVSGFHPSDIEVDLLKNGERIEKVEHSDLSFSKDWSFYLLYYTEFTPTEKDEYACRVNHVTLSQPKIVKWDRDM

One assay addresses T1, human FcRn/b2M (human, UniProt P61769 21-119, biotinylated).
T1 construct: bought recombinant biotinylated protein (ACRO FCM-H82W4 or Immunitrack ITF01); also called hFcRn; hFcRn/hb2M
Kind of assay: SPR pH 6.0.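 Further: surface plasmon resonance kinetics at 25 °C, diluted periplasmic extracts injected over immobilized ligand surfaces, 120 s association then 600–3600 s dissociation, running buffer containing 150 mM NaCl.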
Description: (§1) All kinetic measurements have been performed on ProteOn XPR36 (BioRad Laboratories, Inc.), MASS-2 (Sierra sensors, Gmbh) or SPR-32 (Bruker Corporation). […] The phytip purified periplasmic extracts were diluted 1:10 in running buffer (CPA+150 mM NaCl+0.005% Tw20 at pH 5.5, pH 6.0 or pH 7.4) and injected over the ligand surfaces (association: 120 s at 45 μL/min; dissociation: 600s-3600 s at 45 μL/min). Experiments were carried out at 25° C.
On to B1, for which the koff (commonly the first-order rate constant of dissociation) amounted to 0.0044 s⁻¹.
The molecule B2 returned a koff of 0.00075 s⁻¹.
Still for that read-out and setting: to B3 belongs 0.023 s⁻¹.
For the molecule B4, the off-rate (koff) was 0.00087 s⁻¹.
On the same count and under the same terms, the result for B5 reads 0.0019 s⁻¹; that for B6, 0.0013 s⁻¹.
On to B7, for which the koff was 0.0016 s⁻¹.
B8 displayed a koff of 0.0023 s⁻¹.
The molecule B9 returned a koff of 0.0067 s⁻¹.
Take B10: the koff worked out at 0.0015 s⁻¹.
For the molecule B11, the koff was 0.0016 s⁻¹. This koff and that of the molecule before are within 1.5-fold of each other.
With B12, the koff is 0.0012 s⁻¹.
Regarding B13, the koff was 0.0021 s⁻¹.
B14 returned a koff of 0.00088 s⁻¹.
On the same count and under the same terms, the result for B15 reads 0.00039 s⁻¹; that for B16, 0.0011 s⁻¹.
For B17, the koff amounted to 0.00048 s⁻¹. Compared with the last molecule, the koff is about 2.3-fold lower.
For B18, the koff came to 0.0024 s⁻¹.
The same measure, in the same setting: the result for B19 reads 0.00054 s⁻¹.
Same read-out and setting: to B20 belongs 0.0026 s⁻¹.
Molecule B21 displayed a koff of 0.0027 s⁻¹.
B22 showed a koff of 0.0032 s⁻¹.
Still for that read-out and setting: the result for B23 reads 0.00068 s⁻¹; that for B24, 0.00083 s⁻¹.

The target of another assay is T2, cyno FcRn/b2M (cyno, UniProt Q8SPV9 24-297; Q8SPW0 21-119, biotinylated).
T2 construct: bought recombinant biotinylated protein (Immunitrack ITF05 or ACRO FCM-C82W5); also called cFcRn; cFcRn/cb2M
T2 sequence (Q8SPV9 24-297 limits assumed, chain 1 of 2): as the sequence (chain, as listed by the source limits assumed, chain 1 of 2) above, with N39D, E44Q, G99S, S189G, S190N, L217M, S269T counted along it
T2 sequence (Q8SPW0 21-119 limits assumed, chain 2 of 2): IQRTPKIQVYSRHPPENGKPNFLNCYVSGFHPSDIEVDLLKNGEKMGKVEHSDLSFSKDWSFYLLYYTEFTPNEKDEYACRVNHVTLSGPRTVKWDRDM
Description: SPR pH 6.0.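 Further: surface plasmon resonance kinetics at 25 °C, diluted periplasmic extracts injected over immobilized ligand surfaces, 120 s association then 600–3600 s dissociation, running buffer containing 150 mM NaCl.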
Description: as §1
B1 returned a dissociation rate constant (koff) of 0.0031 s⁻¹.
Same read-out and setting: the result for B2 reads 0.00045 s⁻¹; that for B3, 0.016 s⁻¹.
Molecule B4 showed a koff of 0.00077 s⁻¹.
For the molecule B5, the koff was determined as 0.0017 s⁻¹.
In the case of B6, the koff amounted to 0.001 s⁻¹.
Take B7: the koff turned out to be 0.0013 s⁻¹.
In the case of B8, the koff worked out at 0.0015 s⁻¹.
B9 registered a koff of 0.0055 s⁻¹.
With B10, the koff was found to be 0.0008 s⁻¹.
B11 had a dissociation rate constant (koff) of 0.0012 s⁻¹.
As to B12, the koff came to 0.00079 s⁻¹.
Take B13: the koff worked out at 0.0018 s⁻¹.
Still for that read-out and setting: the result for B14 reads 0.0006 s⁻¹; that for B15, 0.0004 s⁻¹; that for B16, 0.0013 s⁻¹.
For the molecule B17, the koff was 0.00027 s⁻¹.
Same read-out and setting: the result for B18 reads 0.0025 s⁻¹; that for B19, 0.0003 s⁻¹; that for B20, 0.0023 s⁻¹.
With B21, the koff turned out to be 0.0021 s⁻¹.
In the case of B22, the koff stood at 0.0022 s⁻¹.
B23 returned a koff of 0.00043 s⁻¹.
On the same count and under the same terms, to B24 belongs 0.00052 s⁻¹.

The target in the next assay is T1, human FcRn/b2M. Kind of assay: SPR pH 7.4.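 Further: surface plasmon resonance kinetics, periplasmic extracts diluted 1:10 flowed over immobilized target at 25 °C, 120 s association then 600–3600 s dissociation, buffer with 150 mM NaCl.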
Description: as §1
B1 displayed a koff of 0.14 s⁻¹.
Turning to B2, the koff was determined as 0.02 s⁻¹.
Turning to B3, the koff was found to be 0.44 s⁻¹. This koff lies about 22-fold higher than the previous one.
B4 registered a koff of 0.036 s⁻¹.
In the case of B5, the koff amounted to 0.045 s⁻¹.
Take B6: the koff was 0.051 s⁻¹.
Same read-out and setting: the result for B7 reads 0.055 s⁻¹; that for B8, 0.13 s⁻¹; that for B9, 0.15 s⁻¹.
In the case of B10, the koff was determined as 0.062 s⁻¹.
On the same count and under the same terms, the result for B11 reads 0.062 s⁻¹.
On the same count and under the same terms, to B12 belongs 0.063 s⁻¹.
Regarding B13, the koff worked out at 0.053 s⁻¹.
For the molecule B14, the koff came out at 0.034 s⁻¹. Against the preceding molecule, the koff is about 1.6-fold lower.
For the molecule B15, the koff was found to be 0.012 s⁻¹. This koff is about 2.8-fold lower than that of the molecule before.
B16: the koff is 0.03 s⁻¹. Against the preceding molecule, the koff is about 2.5-fold higher.
Molecule B17 yielded a koff of 0.018 s⁻¹.
Turning to B18, the koff was determined as 0.058 s⁻¹.
The molecule B19 displayed a koff of 0.029 s⁻¹.
As for B20, the koff stood at 0.042 s⁻¹. The koff values of the last two molecules are within 1.5-fold of each other.
For B21, the koff was 0.081 s⁻¹.
B22 gave a koff of 0.15 s⁻¹.
Still for that read-out and setting: the result for B23 reads 0.029 s⁻¹; that for B24, 0.035 s⁻¹.

The next assay deals with T2, cyno FcRn/b2M. Kind of assay: SPR pH 7.4.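 Further: surface plasmon resonance kinetics, periplasmic extracts diluted 1:10 flowed over immobilized target at 25 °C, 120 s association then 600–3600 s dissociation, buffer with 150 mM NaCl.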
Description: as §1
Regarding B1, the koff is 0.19 s⁻¹.
B2: the koff stood at 0.013 s⁻¹.
As for B3, the koff was 0.38 s⁻¹.
B4 yielded a koff of 0.039 s⁻¹.
B5 displayed a koff of 0.042 s⁻¹.
The molecule B6 returned a koff of 0.045 s⁻¹.
In the case of B7, the koff was 0.046 s⁻¹.
For B8, the koff is 0.091 s⁻¹.
In turn, B9 showed a koff of 0.14 s⁻¹.
Same read-out and setting: to B10 belongs 0.043 s⁻¹.
As to B11, the off-rate constant (koff) was 0.059 s⁻¹.
Molecule B12 gave an off-rate constant (koff) of 0.047 s⁻¹.
Still for that read-out and setting: the result for B13 reads 0.044 s⁻¹; that for B14, 0.031 s⁻¹.
The molecule B15 came in with a koff of 0.011 s⁻¹.
Turning to B16, the koff is 0.048 s⁻¹.
B17: the koff was 0.013 s⁻¹. This koff lies about 3.7-fold lower than the previous one.
B18 registered a koff of 0.064 s⁻¹. This koff is about 4.9-fold higher than that of the molecule before.
As for B19, the koff was 0.021 s⁻¹.
Molecule B20 showed a koff of 0.047 s⁻¹.
In the case of B21, the off-rate (koff) stood at 0.095 s⁻¹. Against the preceding molecule, the koff is about 2-fold higher.
In the case of B22, the koff amounted to 0.11 s⁻¹. This koff and that of the molecule before are within 1.5-fold of each other.
In the case of B23, the off-rate (koff) was determined as 0.022 s⁻¹.
The same measure, in the same setting: the result for B24 reads 0.023 s⁻¹.

In a further assay the target is T1, human FcRn/b2M. Kind of assay: SPR off-rate; pH 7.4 vs pH 6.0.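 Further: surface plasmon resonance with diluted periplasmic extracts flowed over ligand surfaces, 120 s association and 600–3600 s dissociation at 25 °C, running buffer containing 150 mM NaCl.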
Description: as §1
As for B1, the “kd ratio pH 7.4/6.0” value was 32.
As to B2, the “kd ratio pH 7.4/6.0” value is 26.
As for B3, the “kd ratio pH 7.4/6.0” value was 20.
In the case of B4, the “kd ratio pH 7.4/6.0” value is 41.
On to B5, for which the “kd ratio pH 7.4/6.0” value was determined as 24.
As for B6, the “kd ratio pH 7.4/6.0” value turned out to be 39.
On the same count and under the same terms, to B7 belongs 35; to B8, 56.
For B9, the “kd ratio pH 7.4/6.0” value came to 22.
B10: the “kd ratio pH 7.4/6.0” value was determined as 41.
Turning to B11, the “kd ratio pH 7.4/6.0” value came out at 39.
In the case of B12, the “kd ratio pH 7.4/6.0” value came to 51.
For B13, the “kd ratio pH 7.4/6.0” value was found to be 25.
For the molecule B14, the “kd ratio pH 7.4/6.0” value is 39.
In the case of B15, the “kd ratio pH 7.4/6.0” value came out at 32.
Consider B16, for which the “kd ratio pH 7.4/6.0” value came out at 27.
As to B17, the “kd ratio pH 7.4/6.0” value was 36.
Same read-out and setting: to B18 belongs 24; to B19, 53.
Take B20: the “kd ratio pH 7.4/6.0” value is 16.
Still for that read-out and setting: the result for B21 reads 30; that for B22, 46; that for B23, 43.
Regarding B24, the “kd ratio pH 7.4/6.0” value is 42.

The target in a further assay is T2, cyno FcRn/b2M. Kind of assay: SPR off-rate; pH 7.4 vs pH 6.0.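 Further: surface plasmon resonance with diluted periplasmic extracts flowed over ligand surfaces, 120 s association and 600–3600 s dissociation at 25 °C, running buffer containing 150 mM NaCl.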
Description: as §1
Turning to B1, the “kd ratio pH 7.4/6.0” value is 61.
On the same count and under the same terms, to B2 belongs 28; to B3, 24; to B4, 51.
On to B5, for which the “kd ratio pH 7.4/6.0” value was 25.
Consider B6, for which the “kd ratio pH 7.4/6.0” value is 45.
The same measure, in the same setting: to B7 belongs 36; to B8, 61.
As for B9, the “kd ratio pH 7.4/6.0” value was determined as 26.
In the case of B10, the “kd ratio pH 7.4/6.0” value turned out to be 54.
Consider B11, for which the “kd ratio pH 7.4/6.0” value was determined as 49.
Turning to B12, the “kd ratio pH 7.4/6.0” value amounted to 60.
For the molecule B13, the “kd ratio pH 7.4/6.0” value stood at 25.
The same measure, in the same setting: the result for B14 reads 51.
Consider B15, for which the “kd ratio pH 7.4/6.0” value is 27.
For B16, the “kd ratio pH 7.4/6.0” value worked out at 37.
Still for that read-out and setting: the result for B17 reads 48.
Turning to B18, the “kd ratio pH 7.4/6.0” value amounted to 25.
For the molecule B19, the “kd ratio pH 7.4/6.0” value was found to be 71.
Turning to B20, the “kd ratio pH 7.4/6.0” value stood at 20.
Turning to B21, the “kd ratio pH 7.4/6.0” value came to 45.
Still for that read-out and setting: the result for B22 reads 48; that for B23, 51.
Still for that read-out and setting: the result for B24 reads 44.

The values are drawn from patent US20240132624A1 (Ablynx, published 2024).
